What was measured:
SEC-MALS = biological target: the molecule itself; test: SEC-MALS
[1] = biological target: T1, His-tagged AtYefM co-expressed with AtYoeB from the pET-Duet vector (Agrobacterium tumefaciens strC58, UniProt Q7CY23 1-84); test: SEC-MALS
T1 sequence (looked up): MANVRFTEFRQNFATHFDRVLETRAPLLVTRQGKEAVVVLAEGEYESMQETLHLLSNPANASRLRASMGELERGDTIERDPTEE

B1: His-AtYefM, YefM antitoxin from Agrobacterium tumefaciens expressed alone (pET15b), His affinity tag kept (natural protein, Agrobacterium tumefaciens strC58, UniProt Q7CY23 1-84, looked up)
chain: MANVRFTEFRQNFATHFDRVLETRAPLLVTRQGKEAVVVLAEGEYESMQETLHLLSNPANASRLRASMGELERGDTIERDPTEE
SEC-MALS
  stoichiometry N: 2

B2: YoeB toxin from Agrobacterium tumefaciens (AtYoeB), expressed alone, after removal of the GST-His affinity tag (natural protein)
chain: MKLVWTLSSWDDYEFWQRTDARMVEKINDLIRNAKRTPFAGLGKPEPLKGDMAGYWSRRITAEHRFVYRVSGSGSEQRLEVIQCRFHYQ
SEC-MALS
  stoichiometry N: 2

B3: AtYoeB co-expressed with His-AtYefM from the pET-Duet vector (natural protein)
chain: MKLVWTLSSWDDYEFWQRTDARMVEKINDLIRNAKRTPFAGLGKPEPLKGDMAGYWSRRITAEHRFVYRVSGSGSEQRLEVIQCRFHYQ
[1]
  stoichiometry N: 1

— doi:10.1101/795211 (bioRxiv, 2019)
